According to article PMC11360484 (Toxins, 2024):

Molecular target: T1, recombinant ecarin (rEcarin), SVMP PIII prothrombin activator from Echis pyramidum leakeyi (Echis pyramidum leakeyi (Kenya; entry …)
T1 construct: also called His10-tagged recombinant ecarin
Assay: BLI; Octet HTX; […]; 30 C; PBS with 0.1% TWEEN 20 and 0.1% BSA; 180 s association, 180 s dissociation; 1:1 model, […]
Conditions: both partners purified

T1 sequence (heavy, as listed by the source): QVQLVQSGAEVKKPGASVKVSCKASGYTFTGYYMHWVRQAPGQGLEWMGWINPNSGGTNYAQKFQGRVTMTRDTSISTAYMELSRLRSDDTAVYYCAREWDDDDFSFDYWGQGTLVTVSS

B1: H11 IgG1 (synthetic human antibody against rEcarin) (antibody, V domains shown)
VH: not shown
VL: QSALTQPASVSGSPGQSITISCTGTSSDVGGYNYVSWYQQHPGKAPKLMIYEVSNRPSGVSNRFSGSKSGNTASLTISGLQAEDEADYYCSSYTSSSTLVVFGGGTKLTVL
notes: copies: 2 + 2
Kd: 87 ± 8 nM
